Source: patent US20200024330A1

Assays:
Assay in all cases: cell-based or functional assay
[1] = target: HIV-1 93IN905 Env (on pseudovirus) (HIV-1)
[2] = target: HIV-1 Env of isolate MGRM-G-001 (subtype G) (HIV-1)
[3] = target: HIV-1 Env of isolate MGRM-G-016 (subtype G) (HIV-1)
[4] = target: HIV-1 JRFL Env (on pseudovirus) (HIV-1)
[5] = target: HIV-1 MGRM-A-010 Env (on pseudovirus) (HIV-1)
[6] = target: HIV-1 MGRM-D-018 Env (on pseudovirus) (HIV-1)
[7] = target: HIV-1 NL43 Env (on pseudovirus) (HIV-1)
[8] = target: HIV-1 envelope glycoprotein (Env) of isolate MGRM-C-017, on pseudovirus (HIV-1)
[9] = target: HIV-1 envelope glycoprotein (Env) of isolate MGRM-C-023, on pseudovirus (HIV-1)
[10] = target: HIV-1 envelope glycoprotein (Env) of isolate MGRM-C-025, on pseudovirus (HIV-1)
[11] = target: HIV-1 envelope glycoprotein (Env) of isolate MGRM-C-027, on pseudovirus (HIV-1)
[12] = target: HIV-1 APV6 envelope glycoprotein (Env) (HIV-1)
[13] = target: HIV-1 Env of isolate MGRM-A-010 (HIV-1)
[14] = target: HIV-1 Env of isolate MGRM-A-011 (HIV-1)
[15] = target: HIV-1 Env of isolate MGRM-A-014 (HIV-1)
[16] = target: HIV-1 APV13 envelope glycoprotein (Env) on pseudovirus (HIV-1)
[17] = target: HIV-1 Env of isolate 93MW959 (pseudovirus) (HIV-1 isolate 93MW959, subtype C)
[18] = target: HIV-1 Env of isolate MG RM-AG-001 (HIV-1)
[19] = target: HIV-1 Env of isolate MG RM-AG-008 (HIV-1)
[20] = target: HIV-1 Env of isolate MG RM-D-005 (subtype D) (HIV-1)
[21] = target: HIV-1 Env of isolate MGRM-C-022 (pseudovirus) (HIV-1 isolate MGRM-C-022, subtype C)
[22] = target: HIV-1 Env of isolate MGRM-G-025 (HIV-1)
[23] = target: HIV-1 JR-CSF Env P470A (HIV-1 (isolate JR-CSF)) (UniProt P20871)
[24] = target: HIV-1 JR-CSF Env V127A (HIV-1 (isolate JR-CSF)) (UniProt P20871)
[25] = target: HIV-1 JR-FL Env (pseudovirus) (HIV-1)
[26] = target: HIV-1 MGRM-Chronic-B-004 Env (pseudovirus) (HIV-1)
[27] = target: HIV-1 MGRM-Chronic-B-018 Env (pseudovirus) (HIV-1)
[28] = target: HIV-1 PVO.4 Env (pseudovirus) (HIV-1)
[29] = target: HIV-1 93IN905 envelope protein (Env) on pseudotyped virus (HIV-1 isolate 93IN905)
[30] = target: HIV-1 94UG103 envelope protein (Env) on pseudotyped virus (HIV-1 isolate 94UG103)
[31] = target: HIV-1 Env of isolate MGRM-D-028 (HIV-1)
[32] = target: HIV-1 Env of pseudovirus MGRM-Chronic-B-008, clade B (HIV-1)
[33] = target: HIV-1 IAVI-C18 envelope glycoprotein (Env) on pseudovirus (HIV-1)
[34] = target: HIV-1 LAVIC_18 Env (HIV-1)
[35] = target: HIV-1 MGRM-C-023 Env (HIV-1)
[36] = target: HIV-1 Env of isolate 92UG005 (HIV-1)
[37] = target: HIV-1 Env of isolate MGRM-D-001 (HIV-1)
[38] = target: HIV-1 Env of isolate MGRM-C-026 (HIV-1)

Chain of PGT-144 (4970_K22) (antibody) (VH): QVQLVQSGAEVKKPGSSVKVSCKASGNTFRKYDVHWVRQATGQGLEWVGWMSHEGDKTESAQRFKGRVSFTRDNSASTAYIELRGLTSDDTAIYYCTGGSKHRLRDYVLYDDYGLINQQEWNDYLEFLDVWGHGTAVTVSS
Chain of PGT-144 (4970_K22) (antibody) (VL): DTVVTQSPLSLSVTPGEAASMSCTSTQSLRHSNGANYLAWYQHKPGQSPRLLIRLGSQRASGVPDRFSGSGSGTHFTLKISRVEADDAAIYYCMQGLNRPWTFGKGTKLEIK
Chain of PGT-142 (4995_E20) (antibody) (VH): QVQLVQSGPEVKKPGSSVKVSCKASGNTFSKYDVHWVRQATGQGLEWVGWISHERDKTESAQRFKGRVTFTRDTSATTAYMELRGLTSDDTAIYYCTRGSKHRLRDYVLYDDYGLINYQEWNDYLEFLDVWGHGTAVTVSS
Chain of PGT-142 (4995_E20) (antibody) (VL): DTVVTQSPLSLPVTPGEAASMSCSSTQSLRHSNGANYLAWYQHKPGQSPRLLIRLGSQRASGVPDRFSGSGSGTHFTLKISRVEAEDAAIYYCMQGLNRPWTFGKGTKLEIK
Chain of PGT-143 (4980_N08) (antibody) (VH): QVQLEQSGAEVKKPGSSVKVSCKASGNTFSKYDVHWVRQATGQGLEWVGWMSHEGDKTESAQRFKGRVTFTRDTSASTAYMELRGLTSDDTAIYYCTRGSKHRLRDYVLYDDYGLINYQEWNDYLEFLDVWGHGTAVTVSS
Chain of PGT-143 (4980_N08) (antibody) (VL): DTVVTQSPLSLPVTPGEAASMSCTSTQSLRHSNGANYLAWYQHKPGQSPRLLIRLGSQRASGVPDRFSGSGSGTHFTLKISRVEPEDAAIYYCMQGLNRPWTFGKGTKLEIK
Chain of PGT-141 (4964_G22; 4993_K13) (antibody) (VH): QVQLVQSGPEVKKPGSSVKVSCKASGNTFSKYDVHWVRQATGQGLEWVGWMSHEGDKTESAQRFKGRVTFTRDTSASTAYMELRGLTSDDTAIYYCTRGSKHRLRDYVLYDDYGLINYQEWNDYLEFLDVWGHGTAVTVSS

Substance	IC50 (ug/ml), pseudovirus neutralization [1]	neutralization IC50 [2]	neutralization IC50 [3]	IC50 (ug/ml), pseudovirus neutralization [4]	IC50 (ug/ml), pseudovirus neutralization [5]	IC50 (ug/ml), pseudovirus neutralization [6]	IC50 (ug/ml), pseudovirus neutralization [7]	IC50, pseudovirus neutralization [8]	IC50, pseudovirus neutralization [9]	IC50, pseudovirus neutralization [10]	IC50, pseudovirus neutralization [11]	IC50 neutralization [12]	IC50 (µg/mL), pseudovirus neutralization [13]	IC50 (µg/mL), pseudovirus neutralization [14]	IC50 (µg/mL), pseudovirus neutralization [15]	further results
PGT-144 (4970_K22) (antibody)	0.158 µg/mL	> 50 µg/mL	> 50 µg/mL	> 10 µg/mL	4.02 µg/mL	> 10 µg/mL	> 10 µg/mL	23 µg/mL	0.38 µg/mL	17.6 µg/mL	> 50 µg/mL					
PGT-143 (4980_N08) (antibody)	0.0021 µg/mL	0.423 µg/mL	7.6 µg/mL	> 10 µg/mL	0.0657 µg/mL	> 10 µg/mL	0.585 µg/mL	5.17 µg/mL	0.148 µg/mL	0.336 µg/mL	0.598 µg/mL					
PGT-122 (antibody)												0.0851 µg/mL	2.51 µg/mL	> 50 µg/mL	0.007 µg/mL	
PGT-141 (4964_G22; 4993_K13) (antibody)	0.0016 µg/mL	0.392 µg/mL	4.69 µg/mL	> 10 µg/mL	0.0563 µg/mL	> 10 µg/mL	0.856 µg/mL	4.02 µg/mL	0.153 µg/mL	0.247 µg/mL	3.27 µg/mL					
4858_P08 (PGT-123) (antibody)																IC50 (ug/ml), neutralizing activity [16]: 0.222 µg/mL; IC50, pseudovirus neutralization [16]: 0.222 µg/mL; IC80, pseudovirus neutralization [16]: 0.879 µg/mL; IC90 (pseudovirus neutralization) [16]: 1.87 µg/mL; IC95, pseudovirus neutralization [16]: 3.5 µg/mL; IC50 (µg/mL) neutralization [17]: 0.011 µg/mL; neutralization IC50 [18]: 2.51 µg/mL; neutralization IC50 [19]: 19.2 µg/mL; IC50 (µg/mL), pseudovirus neutralization [20]: > 50 µg/mL; IC50 (µg/mL) neutralization [21]: 0.01 µg/mL; IC50, pseudovirus neutralization [22]: 0.046 µg/mL; Fold IC50 increase relative to wild-type [23]: 0.8 fold; Fold IC50 increase relative to wild-type [24]: 1.2 fold; IC50, pseudovirus neutralization [25]: 0.014 µg/mL; IC50, pseudovirus neutralization [26]: 0.008 µg/mL; IC50, pseudovirus neutralization [27]: > 50 µg/mL; IC50, pseudovirus neutralization [28]: 0.105 µg/mL
1496_C09 (PG9) (TCN-109) (antibody)		0.166 µg/mL	1.36 µg/mL									0.214 µg/mL	0.022 µg/mL	0.033 µg/mL	1.25 µg/mL	IC50, pseudovirus neutralization, 1 hour Virus/Ab Incubation [29]: 0.144 µg/mL; IC50, pseudovirus neutralization, 18 hour Virus/Ab Incubation [29]: 0.0619 µg/mL; IC50, pseudovirus neutralization, 1 hour Virus/Ab Incubation [30]: 0.334 µg/mL; IC50, pseudovirus neutralization, 18 hour Virus/Ab Incubation [30]: 0.0942 µg/mL; IC50 (µg/mL), pseudovirus neutralization [31]: 20.2 µg/mL; IC50 (µg/ml), pseudovirus neutralization [32]: 6.66 µg/mL; IC90 (pseudovirus neutralization) [33]: 0.866 µg/mL; IC50 [34]: 0.1 µg/mL; IC50 [35]: 0.51 µg/mL
PGT-142 (4995_E20) (antibody)	0.0017 µg/mL	0.362 µg/mL	8.17 µg/mL	> 10 µg/mL	0.0578 µg/mL	> 10 µg/mL	0.712 µg/mL	1.11 µg/mL	0.087 µg/mL	0.183 µg/mL	0.792 µg/mL					
PGV04 (antibody)		> 50 µg/mL	0.019 µg/mL										0.205 µg/mL	0.09 µg/mL	0.172 µg/mL	IC50 (µg/mL), pseudovirus neutralization [36]: 0.44 µg/mL; IC50 (µg/mL), pseudovirus neutralization [37]: > 50 µg/mL; IC50 (µg/mL), pseudovirus neutralization [31]: 1.01 µg/mL
PGT-121 (antibody)												0.0423 µg/mL	2.44 µg/mL	> 50 µg/mL	0.003 µg/mL	Primary Neutralization Index (B cell culture well 4838 L06) [38]: 996; Primary Neutralization Index (B cell culture well 4873 E03) [38]: 371
